Assay results from US20230002480A1.

Key:
Assay in all cases: cell-based or functional assay
[1] = biological target: HIV-1 Env of pseudovirus 1394C9G1(Rev-) (HIV-1)
[2] = biological target: HIV-1 Env of pseudovirus 191084 B7-19 (HIV-1)
[3] = biological target: HIV-1 Env of pseudovirus 231965.c01 (HIV-1)
[4] = biological target: HIV-1 Env of pseudovirus 246F C1G (HIV-1)
[5] = biological target: HIV-1 Env of pseudovirus 3016.v5.c45 (HIV-1)
[6] = biological target: HIV-1 Env of pseudovirus 3365.v2.c2 (HIV-1)
[7] = biological target: HIV-1 Env of pseudovirus 3817.v2.c59 (HIV-1)
[8] = biological target: HIV-1 Env of pseudovirus 6480.v4.c25 (HIV-1)
[9] = biological target: HIV-1 Env of pseudovirus 6811.v7.c18 (HIV-1)
[10] = biological target: HIV-1 Env of pseudovirus 6952.v1.c20 (HIV-1)
[11] = biological target: HIV-1 Env of pseudovirus 7030102001E5(Rev-) (HIV-1)
[12] = biological target: HIV-1 Env of pseudovirus 89-F1_2_25 (HIV-1)
[13] = biological target: HIV-1 Env of pseudovirus AC10.0.29 (HIV-1)
[14] = biological target: HIV-1 Env of pseudovirus BF1266.431a (HIV-1)
[15] = biological target: HIV-1 Env of pseudovirus BJOX010000.06.2 (HIV-1)
[16] = biological target: HIV-1 Env of pseudovirus BJOX015000.11.5 (HIV-1)
[17] = biological target: HIV-1 Env of pseudovirus BJOX025000.01.1 (HIV-1)
[18] = biological target: HIV-1 Env of pseudovirus CAAN5342.A2 (HIV-1)
[19] = biological target: HIV-1 Env of pseudovirus Ce703010054_2A2 (HIV-1)
[20] = biological target: HIV-1 Env of pseudovirus Du172.17 (HIV-1)
[21] = biological target: HIV-1 Env of pseudovirus Du422.1 (HIV-1)
[22] = biological target: HIV-1 Env of pseudovirus HIV-16055-2.3 (HIV-1)
[23] = biological target: HIV-1 Env of pseudovirus P0402_c2_11 (HIV-1)
[24] = biological target: HIV-1 Env of pseudovirus Q23.17 (HIV-1)
[25] = biological target: HIV-1 Env of pseudovirus R3265.c06 (HIV-1)
[26] = biological target: HIV-1 Env of pseudovirus REJO4541.67 (HIV-1)
[27] = biological target: HIV-1 Env of pseudovirus SC422661.8 (HIV-1)
[28] = biological target: HIV-1 Env of pseudovirus T250-4 (HIV-1)
[29] = biological target: HIV-1 Env of pseudovirus T278-50 (HIV-1)
[30] = biological target: HIV-1 Env of pseudovirus THRO4156.18 (HIV-1)
[31] = biological target: HIV-1 Env of pseudovirus WITO4160.33 (HIV-1)
[32] = biological target: HIV-1 Env of pseudovirus X1193_c1 (HIV-1)
[33] = biological target: HIV-1 Env of pseudovirus X1254_c3 (HIV-1)
[34] = biological target: HIV-1 Env of pseudovirus ZM197M.PB7 (HIV-1)
[35] = biological target: HIV-1 Env of pseudovirus ZM53M.PB12 (HIV-1)
[36] = biological target: HIV-1 Env of pseudovirus 0260.v5.c36 (HIV-1)

## 8ANC195 (antibody)
[1]
  neutralization IC50: > 50 µg/mL
  neutralization IC80: > 50 µg/mL
[2]
  neutralization IC50: > 50 µg/mL
  neutralization IC80: > 50 µg/mL
[3]
  IC50, titer in TZM.bl cells: 2.36 µg/mL
  IC80, titer in TZM.bl cells: 2.36 µg/mL
[4]
  neutralization IC50: 12.8 µg/mL
  neutralization IC80: > 50 µg/mL
[5]
  IC50, titer in TZM.bl cells: 0.87 µg/mL
  IC80, titer in TZM.bl cells: > 50 µg/mL
[6]
  neutralization IC50: > 30 µg/mL
  neutralization IC80: > 30 µg/mL
[7]
  IC50, titer in TZM.bl cells: 1 µg/mL
  IC80, titer in TZM.bl cells: 5.3 µg/mL
[8]
  IC50, titer in TZM.bl cells: 0.16 µg/mL
  IC80, titer in TZM.bl cells: 1.13 µg/mL
[9]
  IC50, titer in TZM.bl cells: 5.34 µg/mL
  IC80, titer in TZM.bl cells: 27.6 µg/mL
[10]
  IC50, titer in TZM.bl cells: 1.38 µg/mL
  IC80, titer in TZM.bl cells: 7.22 µg/mL
[11]
  neutralization IC50: 0.86 µg/mL
  neutralization IC80: 8.32 µg/mL
[12]
  IC50, titer in TZM.bl cells: > 50 µg/mL
  IC80, titer in TZM.bl cells: > 50 µg/mL
[13]
  neutralization IC50: 0.88 µg/mL
  neutralization IC80: 7 µg/mL
[14]
  neutralization IC50: > 50 µg/mL
  neutralization IC80: > 50 µg/mL
[15]
  IC50, titer in TZM.bl cells: 0.85 µg/mL
  IC80, titer in TZM.bl cells: 5.84 µg/mL
[16]
  IC50, titer in TZM.bl cells: 0.97 µg/mL
  IC80, titer in TZM.bl cells: 4.3 µg/mL
[17]
  IC50, titer in TZM.bl cells: 4.96 µg/mL
  IC80, titer in TZM.bl cells: > 50 µg/mL
[18]
  neutralization IC50: > 50 µg/mL
  neutralization IC80: > 50 µg/mL
[19]
  neutralization IC50: 13.6 µg/mL
  neutralization IC80: > 50 µg/mL
[20]
  neutralization IC50: > 30 µg/mL
  neutralization IC80: > 30 µg/mL
[21]
  neutralization IC50: > 50 µg/mL
  neutralization IC80: > 50 µg/mL
[22]
  neutralization IC50: 15.3 µg/mL
  neutralization IC80: > 50 µg/mL
[23]
  IC50, titer in TZM.bl cells: 0.62 µg/mL
  IC80, titer in TZM.bl cells: 6.35 µg/mL
[24]
  neutralization IC50: 2.55 µg/mL
  neutralization IC80: 2.55 µg/mL
[25]
  IC50, titer in TZM.bl cells: 50 µg/mL
  IC80, titer in TZM.bl cells: > 50 µg/mL
[26]
  neutralization IC50: 0.08 µg/mL
  neutralization IC80: 0.68 µg/mL
[27]
  neutralization IC50: 0.29 µg/mL
  neutralization IC80: 4.67 µg/mL
[28]
  IC50, titer in TZM.bl cells: > 50 µg/mL
  IC80, titer in TZM.bl cells: > 50 µg/mL
[29]
  IC50, titer in TZM.bl cells: > 50 µg/mL
  IC80, titer in TZM.bl cells: > 50 µg/mL
[30]
  neutralization IC50: > 50 µg/mL
  neutralization IC80: > 50 µg/mL
[31]
  neutralization IC50: > 50 µg/mL
  neutralization IC80: > 50 µg/mL
[32]
  IC50, titer in TZM.bl cells: 0.27 µg/mL
  IC80, titer in TZM.bl cells: 1.66 µg/mL
[33]
  IC50, titer in TZM.bl cells: 6.95 µg/mL
  IC80, titer in TZM.bl cells: 6.95 µg/mL
[34]
  neutralization IC50: 23.4 µg/mL
  neutralization IC80: > 50 µg/mL
[35]
  neutralization IC50: > 30 µg/mL
  neutralization IC80: > 30 µg/mL

## N49P7.1 (antibody)
[36]
  neutralization IC50: 0.497 µg/mL
  neutralization IC80: 1.51 µg/mL
  neutralization MPI: 100
[1]
  neutralization IC50: 4.37 µg/mL
  neutralization IC80: 30.9 µg/mL
  neutralization MPI: 88
[2]
  neutralization IC50: 0.069 µg/mL
  neutralization IC80: 0.2 µg/mL
  neutralization MPI: 100
[4]
  neutralization IC50: 0.049 µg/mL
  neutralization IC80: 0.165 µg/mL
  neutralization MPI: 100
[6]
  neutralization IC50: 0.088 µg/mL
  neutralization IC80: 0.289 µg/mL
  neutralization MPI: 100
[11]
  neutralization IC50: 0.11 µg/mL
  neutralization IC80: 0.498 µg/mL
  neutralization MPI: 100
[13]
  neutralization IC50: 5.31 µg/mL
  neutralization IC80: 46.8 µg/mL
  neutralization MPI: 85
[14]
  neutralization IC50: 0.033 µg/mL
  neutralization IC80: 0.11 µg/mL
  neutralization MPI: 100
[15]
  neutralization IC50: 0.132 µg/mL
  neutralization IC80: 0.623 µg/mL
  neutralization MPI: 100
[16]
  neutralization IC50: 0.111 µg/mL
  neutralization IC80: 0.487 µg/mL
  neutralization MPI: 100
[17]
  neutralization IC50: 0.057 µg/mL
  neutralization IC80: 0.378 µg/mL
  neutralization MPI: 100
[18]
  neutralization IC50: 0.55 µg/mL
  neutralization IC80: 1.59 µg/mL
  neutralization MPI: 100
[19]
  neutralization IC50: 0.085 µg/mL
  neutralization IC80: 0.364 µg/mL
  neutralization MPI: 100
[20]
  neutralization IC50: 0.185 µg/mL
  neutralization IC80: 0.748 µg/mL
  neutralization MPI: 100
[21]
  neutralization IC50: 3.76 µg/mL
  neutralization IC80: 15.7 µg/mL
  neutralization MPI: 93
[22]
  neutralization IC50: 0.088 µg/mL
  neutralization IC80: 0.318 µg/mL
  neutralization MPI: 100
[23]
  neutralization IC50: 0.029 µg/mL
  neutralization IC80: 0.115 µg/mL
  neutralization MPI: 100
[24]
  neutralization IC50: 0.077 µg/mL
  neutralization IC80: 0.208 µg/mL
  neutralization MPI: 100
[25]
  neutralization IC50: 0.059 µg/mL
  neutralization IC80: 0.328 µg/mL
  neutralization MPI: 100
[26]
  neutralization IC50: 0.022 µg/mL
  neutralization IC80: 0.088 µg/mL
  neutralization MPI: 100
[27]
  neutralization IC50: 0.125 µg/mL
  neutralization IC80: 0.417 µg/mL
  neutralization MPI: 100
[28]
  neutralization IC50: 2.27 µg/mL
  neutralization IC80: 24.7 µg/mL
  neutralization MPI: 89
[29]
  neutralization IC50: 42.4 µg/mL
  neutralization IC80: > 50 µg/mL
  neutralization MPI: 56
[30]
  neutralization IC50: 3.07 µg/mL
  neutralization IC80: 12.6 µg/mL
  neutralization MPI: 98
[31]
  neutralization IC50: 0.121 µg/mL
  neutralization IC80: 0.326 µg/mL
  neutralization MPI: 100
[32]
  neutralization IC50: 0.035 µg/mL
  neutralization IC80: 0.144 µg/mL
  neutralization MPI: 100
[33]
  neutralization IC50: 3.96 µg/mL
  neutralization IC80: 18.2 µg/mL
  neutralization MPI: 96
[34]
  neutralization IC50: 0.144 µg/mL
  neutralization IC80: 0.539 µg/mL
  neutralization MPI: 100
[35]
  neutralization IC50: 0.287 µg/mL
  neutralization IC80: 1 µg/mL
  neutralization MPI: 100
